Results from patent US20180244760A1.

How the values were obtained:
[1] = molecular target: Clostridium difficile toxin A (TcdA) (Clostridium difficile) (UniProt P16154); test: cell-based or functional assay
[2] = molecular target: Clostridium difficile toxin A (TcdA) (Clostridium difficile) (UniProt P16154); test: ELISA, plate coated with 1 ug/ml TcdA

Clostridium difficile toxin A (TcdA) (Clostridium difficile), sequence (P16154 whole entry): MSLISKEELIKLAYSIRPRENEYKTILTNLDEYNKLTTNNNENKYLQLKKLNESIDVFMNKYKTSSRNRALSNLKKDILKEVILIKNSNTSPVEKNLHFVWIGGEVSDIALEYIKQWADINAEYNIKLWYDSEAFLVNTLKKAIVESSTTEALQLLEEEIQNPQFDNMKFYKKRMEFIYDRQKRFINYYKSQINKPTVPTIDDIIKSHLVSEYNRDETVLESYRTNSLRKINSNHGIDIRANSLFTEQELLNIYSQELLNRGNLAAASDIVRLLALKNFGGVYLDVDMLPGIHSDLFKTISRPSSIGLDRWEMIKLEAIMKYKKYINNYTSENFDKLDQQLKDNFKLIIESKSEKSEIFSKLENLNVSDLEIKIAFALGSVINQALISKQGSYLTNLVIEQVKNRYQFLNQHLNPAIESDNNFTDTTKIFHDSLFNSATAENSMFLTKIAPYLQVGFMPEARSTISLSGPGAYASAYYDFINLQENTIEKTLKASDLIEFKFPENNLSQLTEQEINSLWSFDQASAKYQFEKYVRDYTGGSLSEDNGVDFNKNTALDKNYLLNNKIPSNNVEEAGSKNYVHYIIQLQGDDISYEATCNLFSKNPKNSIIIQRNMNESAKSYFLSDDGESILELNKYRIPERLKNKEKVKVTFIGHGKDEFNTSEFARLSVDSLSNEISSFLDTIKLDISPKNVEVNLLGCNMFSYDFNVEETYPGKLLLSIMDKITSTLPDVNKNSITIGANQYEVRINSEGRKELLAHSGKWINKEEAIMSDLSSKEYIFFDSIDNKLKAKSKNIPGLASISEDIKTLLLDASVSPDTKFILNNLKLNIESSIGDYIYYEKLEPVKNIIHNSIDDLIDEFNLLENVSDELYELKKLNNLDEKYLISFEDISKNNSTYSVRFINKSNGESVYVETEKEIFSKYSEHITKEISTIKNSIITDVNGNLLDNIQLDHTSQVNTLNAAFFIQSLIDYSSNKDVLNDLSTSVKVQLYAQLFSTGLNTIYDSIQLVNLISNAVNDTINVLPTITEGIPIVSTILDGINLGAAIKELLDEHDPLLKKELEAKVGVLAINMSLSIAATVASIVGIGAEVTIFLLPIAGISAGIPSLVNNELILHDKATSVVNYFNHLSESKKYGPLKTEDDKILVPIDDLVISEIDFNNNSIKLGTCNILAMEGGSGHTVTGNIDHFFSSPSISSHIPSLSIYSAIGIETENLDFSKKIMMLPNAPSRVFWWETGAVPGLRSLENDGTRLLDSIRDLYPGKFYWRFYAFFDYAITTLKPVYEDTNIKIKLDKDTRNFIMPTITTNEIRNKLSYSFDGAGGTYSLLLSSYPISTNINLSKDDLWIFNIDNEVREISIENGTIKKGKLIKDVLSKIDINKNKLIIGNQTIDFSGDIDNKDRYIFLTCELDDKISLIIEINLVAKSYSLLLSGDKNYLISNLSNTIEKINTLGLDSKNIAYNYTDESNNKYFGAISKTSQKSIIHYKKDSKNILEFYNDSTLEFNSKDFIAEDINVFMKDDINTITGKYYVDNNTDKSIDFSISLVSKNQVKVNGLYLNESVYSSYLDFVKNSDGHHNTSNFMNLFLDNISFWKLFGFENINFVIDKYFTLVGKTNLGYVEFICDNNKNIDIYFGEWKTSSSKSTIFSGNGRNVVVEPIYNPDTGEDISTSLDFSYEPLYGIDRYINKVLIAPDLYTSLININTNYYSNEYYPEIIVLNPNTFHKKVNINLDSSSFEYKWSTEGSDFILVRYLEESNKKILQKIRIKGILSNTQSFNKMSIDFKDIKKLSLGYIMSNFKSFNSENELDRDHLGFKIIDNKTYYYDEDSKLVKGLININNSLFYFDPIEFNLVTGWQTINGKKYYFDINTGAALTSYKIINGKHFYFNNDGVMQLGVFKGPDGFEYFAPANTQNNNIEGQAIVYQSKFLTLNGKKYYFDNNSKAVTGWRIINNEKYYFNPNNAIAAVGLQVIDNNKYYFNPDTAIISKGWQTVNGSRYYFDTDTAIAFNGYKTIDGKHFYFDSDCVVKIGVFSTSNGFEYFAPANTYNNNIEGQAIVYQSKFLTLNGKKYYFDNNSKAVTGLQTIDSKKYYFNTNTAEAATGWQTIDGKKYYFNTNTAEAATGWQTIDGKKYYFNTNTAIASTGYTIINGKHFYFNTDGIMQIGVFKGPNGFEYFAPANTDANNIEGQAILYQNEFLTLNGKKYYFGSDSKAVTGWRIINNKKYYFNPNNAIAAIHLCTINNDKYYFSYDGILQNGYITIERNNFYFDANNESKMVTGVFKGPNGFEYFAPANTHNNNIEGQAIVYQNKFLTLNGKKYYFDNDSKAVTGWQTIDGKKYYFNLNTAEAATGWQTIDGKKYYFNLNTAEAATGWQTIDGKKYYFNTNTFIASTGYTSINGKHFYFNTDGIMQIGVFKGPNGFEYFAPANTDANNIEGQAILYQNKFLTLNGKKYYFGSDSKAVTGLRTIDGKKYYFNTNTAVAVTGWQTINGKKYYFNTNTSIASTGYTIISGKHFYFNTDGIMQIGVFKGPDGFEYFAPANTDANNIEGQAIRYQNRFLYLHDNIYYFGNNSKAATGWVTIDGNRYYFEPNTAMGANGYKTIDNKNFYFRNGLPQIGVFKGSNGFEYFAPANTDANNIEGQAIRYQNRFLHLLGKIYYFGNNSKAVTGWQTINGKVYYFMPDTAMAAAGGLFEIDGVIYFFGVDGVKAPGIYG

Merck anti-TcdA human monoclonal antibody
minimal dose of antibody protecting Vero cells from TcdA-induced cell rounding [1]: > 10 nM
EC50 (read off the curve) [2]: 2 ng/mL
